Measurements published in paper doi:10.1101/2025.05.06.651509 (bioRxiv, 2025).
Where a chain is given by its changes, count along the chain named. Names may count otherwise.

Molecular target: the molecule itself
Assay: MST

B1: recombinant TSC22D4 (natural protein, human, UniProt Q9Y3Q8 1-395, looked up)
chain: MSGGKKKSSFQITSVTTDYEGPGSPGASDPPTPQPPTGPPPRLPNGEPSPDPGGKGTPRNGSPPPGAPSSRFRVVKLPHGLGEPYRRGRWTCVDVYERDLEPHSFGGLLEGIRGASGGAGGRSLDSRLELASLGLGAPTPPSGLSQGPTSWLRPPPTSPGPQARSFTGGLGQLVVPSKAKAEKPPLSASSPQQRPPEPETGESAGTSRAATPLPSLRVEAEAGGSGARTPPLSRRKAVDMRLRMELGAPEEMGQVPPLDSRPSSPALYFTHDASLVHKSPDPFGAVAAQKFSLAHSMLAISGHLDSDDDSGSGSLVGIDNKIEQAMDLVKSHLMFAVREEVEVLKEQIRELAERNAALEQENGLLRALASPEQLAQLPSSGVPRLGPPAPNGPSV
modifications: RED-tris-NTA dye on the His tag (labelled copy only)
B1: binds.

B2: TSC22D4 I322W (natural protein, human, UniProt Q9Y3Q8 1-395, looked up)
chain: B1 chain with I322W
B2: binds.
